According to a protein production outcome set (Wang et al. 2014):

Test: label from the status in PepcDB records

Sequence | protein production
MAESTIITGQFVRISQVPASLGERILARIIDYFLLFIYILATSYILGKLNIHAFSGSTFFLLFLFIYLPVLCYSLLCEVFNQGQSAGKKLMNIRVVKADGTTPSLSAYLLRWLLYGIDVTITGGLGVLVILLTKNSQRLGDLAAGTMVIKEKNYRKIQVSLDEFDYLTKGYHPSFPSAADLSLEQINVISKALELHHKDRTRHIAQLAPKVRALLSVDQTNINDEKFLQTVVRDYQYYALEEI | failed
MAETAPLRVQLIAKTDFLAPPDVPWTTDADGGPALVEFAGRACYQSWSKPNPKTATNAGYLRHIIDVGHFSVLEHASVSFYITGISRSCTHELIRHRHFSYSQLSQRYVPEKDSRVVVPPGMEDDADLRHILTEAADAARATYSELLAKLEAKFADQPNAILRRKQARQAARAVLPNATETRIVVTGNYRAWRHFIAMRASEHADVEIRRLAIECLRQLAAVAPAVFADFEVTTLADGTEVATSPLATEALEHHHHHH | not failed
MAETIQNFLTEYYSIAIPLSILINIIISLLGFIPSIFLTAINIQLFGVTNGTVISIAGEALGAIISFYIYRMGLQKFTHDKVNKYPKVERLLYVEGREAFLLVLSFRLIPFIPSSIVTLFAALGKMSLLSFSIASTIGKIPALLIEVYSAYHVMNGTNEAKWIVTIAGCIGLYYLWKKWRKK | failed
MAETSALPTGFGELEVLAVGMVLLVEALSGLSLNTLTIFSFCKTPELRTPCHLLVLSLALADSGISLNALVAATSSLLRRWPYGSDGCQAHGFQGFVTALASICSSAAIAWGRYHHYCTRSQLAWNSAVSLVLFVWLSSAFWAALPLLGWGHYDYEPLGTCCTLDYSKGDRNFTSFLFTMSFFNFAMPLFITITSYSLMEQKLGKSGHLQVNTTLPARTLLLGWGPYAILYLYAVIADVTSISPKLQMVPALIAKMVPTINAINYALGNEMVCRGIWQCLSPQKREKDRTK | failed
MAEVHVIGQIMGASGFSESSLFCKWGIHTGAAWKLLSGVREGQTQVDTPQIGDMAYWSHPIDLHFATKGLQGWPRLHFQVWSQDSFGRCQLAGYGFCHVPSSPGTHQLACPTWRPLGSWREQLARAFVGGGPQLLHGDTIYSGADRYRLHTAAGGTVHLEIGLLLRNFDRYGVEC | failed
MAEVRQNPVVIVPGVLFWDSLYEVMREALSTWIPAEKIAIVPVNLLDWLGFPPSPERSTNRVMAALDRTVRAMASRFPGEPVTIVAHSGGGTVAMIYLLERPFQGDVYAVNGLVGRLVTLGTPFHTHEHFAKIKTDFIFKHLGPEFFQKYQVVSVVSNQYKGSLDGGMIEKMCYMFYRGVTDDGNLAGDGVVPARSCFLDGAKNVTILECEHLPAPHTKWYGTKDGVEQWIEWL | failed
MAFDLQEQEQIDSLKAFWQQWGKLIGGAVLAVSLGYLGYKAYGMYQRGQSEKAAAAYEAVDDAVAAKDIAKLKSAAQQLQGEYAGTLYASRAALVLAKAAFDKNDPALAASQLEWVLKNGKDEELQAIARLRLASLLLDQKKFDGAIGELNQAHPAAFDAEFLELKGDVFVAKGDSNGARDAYKAALAKMQGESPNRQLVQTKLDALGG | failed
MAFNGAMSVGAQISDAVILAHSPKSCTHIMYQTISSAGRRTLFERGALLPVSLAPNLESTDMGEAEMIFGGMEKLEEKILELKARQPRAIVVVSACPAGIIGDDIGRTRRFSEPGLPVVTLKTDGNLAGDYLQGMLMAYTSLARQVIRLEHHHHHH | failed
MAFQVKIHQIRAFVEVARQGSIRGASRMLNMSQPALSKSIQELEEGLAAQLFFRRSKGVTLTDAGESFYQHASLILEELRAAQEDIRQRQGQLAGQINIGMGASISRSLMPAVISRFHQQHPQVKVRIMEGQLVSMINELRQGELDFTINTYYQGPYDHEFTFEKLLEKQFAIFCRPGHPAIGARSIKQLLDYSWTMPTPHGSYYKQLSELLDDQAQTPQVGVVCETFSACISLVAKSDFLSKLPEEMGCDPLHGQGLVMLPVSEILPKAAYYLIQRRDSRQTPLTASLITQFRRECGYLQS | failed
MAFRKPDEIAEAAIEAGMKKIKLPLPSLLVLGFLGGAFIALGYLLDIRVIGDLPKEWGSLSSLIGAAVFPVGLILVVLAGAELITGNMMSVAMALFSRKISVKELAINWGIVTIMNLIGALFVAYFFGHLVGLTETGPYLEKTIAVAQGKLDMSFGKVLISAIGCNWLVCLAVWLSFGAQDAAGKILGIWFPIMAFVAIGFQHVVANMFVIPAAIFAGSFTWGQFIGNIIPAFIGNVIGGAVFVGLIYFIAYHKKDRSRKEMKQVS | failed
MAFSVAYDLIPNKLIKDIDEMNQWLHDKINRAVYLVGFATQQSDYEYKLYELFKALDELEERLKKQLFLFGNQLTESDLYLLATLERFDNIYFCLFKCSLKRIADYPALFRYHNQLRGMESLASTYQPVLTKEHYFMSTMHVLGLEHHHHHH | failed
